Target: ZMYND8 (UniProt Q9ULU4)
Assay: co-IP of Flag-ZMYND8 and Myc-EZH2
Conditions: reference: wild type; sites T487

- binding against the reference: weaker
Substance: EZH2 (from UniProt Q15910) T487A
